Test results reported in patent US20100291074A1, “CYCLOPHILIN D-AMYLOID BETA INTERACTION POTENTIATES MITOCHONDRIAL DYSFUNCTION IN A TRANSGENIC MOUSE MODEL OF ALZHEIMER'S DISEASE” (COLUMBIA UNIVERSITY IN THE CITY OF NEW YORK, priority 2007, published 2010).

Target: Aβ (amyloid beta peptide, length and aggregation state not specified; ˜4 kDa band) (UniProt P05067)
Assay: cell-based or functional assay

mitochondrial ROS (MitoSox staining) in brain slices, Tg mAPP/CypD-/- versus Tg mAPP mice: 80%
Substance: mouse CypD, endogenous, in brain mitochondria and cultured cortical neurons of nonTg and Tg mAPP mice (from UniProt Q99KR7 30-206) (enzyme)
